Experimental data as given in US20110002929A1 (Ablynx, published 2011).

T1: human RANK-L (human, UniProt O14788 140-317, limits assumed)
T1 construct: Soluble protein, used coated, biotinylated or labelled in ELISA, AlphaScreen, FMAT and Biacore; also called hRANK-L; soluble human RANK-L
T1 sequence (looked up): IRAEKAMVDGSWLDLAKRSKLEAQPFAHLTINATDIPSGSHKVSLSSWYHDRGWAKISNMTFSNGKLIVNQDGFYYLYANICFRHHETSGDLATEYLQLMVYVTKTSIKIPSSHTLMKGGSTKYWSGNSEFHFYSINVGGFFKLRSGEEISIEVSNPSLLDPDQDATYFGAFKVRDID

T2: human RANK-L, full length, membrane-bound, expressed on HEK293T cells (human, UniProt O14788 1-317)
T2 construct: whole, on cells; also called hRANK-L
T2 sequence (looked up): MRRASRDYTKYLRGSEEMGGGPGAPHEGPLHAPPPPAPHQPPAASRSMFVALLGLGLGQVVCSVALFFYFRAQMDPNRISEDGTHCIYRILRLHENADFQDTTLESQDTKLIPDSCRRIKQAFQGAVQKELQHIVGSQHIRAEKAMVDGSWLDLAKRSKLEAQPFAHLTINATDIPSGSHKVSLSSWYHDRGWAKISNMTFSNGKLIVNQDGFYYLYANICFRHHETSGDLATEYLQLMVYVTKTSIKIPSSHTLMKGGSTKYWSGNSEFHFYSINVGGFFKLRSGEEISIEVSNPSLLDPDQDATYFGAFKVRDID

T3: cynomolgus RANK-L, full length, membrane-bound, expressed on HEK293T cells (cynomolgus monkey, UniProt A0A7N9DBU4 1-317)
T3 construct: whole, on cells; also called cyno RANK-L
T3 sequence: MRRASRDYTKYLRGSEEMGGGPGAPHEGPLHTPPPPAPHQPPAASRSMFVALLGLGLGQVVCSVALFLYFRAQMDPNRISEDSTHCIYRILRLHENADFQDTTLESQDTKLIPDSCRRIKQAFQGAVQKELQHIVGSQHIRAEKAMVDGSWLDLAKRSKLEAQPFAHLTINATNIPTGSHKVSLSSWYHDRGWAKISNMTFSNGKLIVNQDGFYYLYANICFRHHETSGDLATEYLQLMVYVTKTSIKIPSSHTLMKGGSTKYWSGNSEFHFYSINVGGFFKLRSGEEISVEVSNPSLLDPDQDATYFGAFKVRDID

T4: CD40 ligand (UniProt P29965 113-261, limits assumed)
T4 sequence (looked up): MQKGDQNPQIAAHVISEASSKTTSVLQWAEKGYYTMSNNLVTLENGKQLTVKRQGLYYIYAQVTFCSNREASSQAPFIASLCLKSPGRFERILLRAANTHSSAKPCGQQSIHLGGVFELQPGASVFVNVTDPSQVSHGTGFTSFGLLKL

T5: mouse RANK-L (mouse, UniProt O35235 158-316, limits assumed)
T5 construct: also called murine RANK-L
T5 sequence (looked up): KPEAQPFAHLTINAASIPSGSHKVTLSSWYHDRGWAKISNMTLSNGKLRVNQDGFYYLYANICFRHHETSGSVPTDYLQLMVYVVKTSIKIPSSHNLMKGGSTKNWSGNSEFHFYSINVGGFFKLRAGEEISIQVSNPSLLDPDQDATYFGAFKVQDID


Assays:
human RANK-L [1] = biological target: T1, human RANK-L; assay: AlphaScreen, biotin-hRANK-L / RANK-huFc beads
human RANK-L [2] = biological target: T1, human RANK-L; assay: SPR Biacore 3000, hRANK-L on CM5, 100 nM Nanobody; only indicative (one concentration)
Method: (§1) Binding kinetics of the humanized versions of Nanobodu RANL13 were also analysed by Surface Plasmon Resonance (Biacore 3000). […] Nanobody binding was assessed at one concentration (100 nM). Each Nanobody was injected for 4 minutes at a flow rate of 45 μl/min to allow binding to chip-bound antigen. Next, binding buffer without Nanobody was sent over the chip at the same flow rate to allow spontaneous dissociation of bound Nanobody.

human RANK-L [3] = biological target: T1, human RANK-L; assay: AlphaScreen, biotin-hRANK-L / RANK-huFc beads; remark: listed apart in the source
human RANK-L [4] = biological target: T1, human RANK-L; assay: FMAT, ALEXA647-hRANK-L / RANK on HEK293T cells
human RANK-L [5] = biological target: T1, human RANK-L; assay: SPR Biacore 3000, hRANK-L on CM5, 100 nM Nanobody
Method: as §1

[6] = biological target: T2, human RANK-L, full length, …; assay: FACS, HEK293T with human RANK-L, 400 pM Nanobody
Method: (§2) Human embryonic kidney cells (HEK293T) were grown in Dulbecco's modified Eagles's medium supplemented with 10% fetal bovine serum (FBS), […] L-glutamine, 0.4 mM sodium pyruvate. […] After 48 hours, transfected cells were subjected to FACS analysis. […] Then cells were washed three times with FACS buffer. Bound Nanobodies were detected by subsequent incubations of a primary mouse anti Myc antibody (30 min at 4° C. (2 μg/ml)) and a second incubation with goat anti mouse-Phycoerythrin (PE) (Jackson Laboratories) for another 30 min at 4° C. Finally, after washing, the cells were resuspended in PBS+10% FBS+TO-PRO®-3 (5 nM) (Molecular Probes®, Invitrogen, Merelbeke, Belgium) and cell surface fluorescence expressed as mean PE fluorescence, was measured using flow cytometry.

human RANK-L [7] = biological target: T1, human RANK-L; assay: AlphaScreen, biotin-hRANK-L / RANK-huFc beads; remark: listed apart in the source
Method: To this mixture, the RANK acceptor beads and the streptavidin donor beads were added and further incubated for 1 hour at room temperature. Fluorescence was measured by reading plates on the EnVision Multilabel Plate Reader (Perkin Elmer) using an excitation wavelength of 680 nm and an emission wavelength of 520 nm.

human RANK-L [8] = biological target: T1, human RANK-L; assay: ELISA (ED50), biotin-hRANK-L on neutravidin
In short: (§3)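 Nanobodies at 500 nM to 160 pM in 1% casein/PBS incubated 1 h at room temperature; binding detected via anti-myc then anti-mouse-HRP with TMB, OD 450 nm.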

[9] = biological target: T2, human RANK-L, full length, …; assay: FACS, HEK293T with human RANK-L, 80 pM Nanobody
Method: as §2

[10] = biological target: T3, cynomolgus RANK-L, full length, …; assay: FACS, HEK293T with cynomolgus RANK-L, 400 pM Nanobody
Method: as §2

[11] = biological target: T2, human RANK-L, full length, …; assay: FACS, HEK293T with human RANK-L, 2000 pM Nanobody
Method: as §2

human RANK-L [12] = biological target: T1, human RANK-L; assay: cell-based or functional assay
[13] = biological target: T3, cynomolgus RANK-L, full length, …; assay: FACS, HEK293T with cynomolgus RANK-L, 2000 pM Nanobody
Method: as §2

TRAIL [14] = biological target: T6, TRAIL (UniProt P50591 114-281, limits assumed); assay: competition ELISA on RANK-L-coated plates, 1 nM Nanobody preincubated with the ligand
T6 construct: also called tumor necrosis factor-related apoptosis inducing ligand

TNFα [15] = biological target: T7, TNFα (UniProt P01375 77-233); assay: as above
T7 construct: also called TNF-alpha

CD40 ligand = biological target: T4, CD40 ligand; assay: as above
human RANK-L [16] = biological target: T1, human RANK-L; assay: AlphaScreen, biotin-hRANK-L / RANK-huFc beads; remark: listed apart in the source
mouse RANK-L [17] = biological target: T5, mouse RANK-L; assay: ELISA, set-up as for human RANK-L
In short: as §3

[18] = biological target: T2, human RANK-L, full length, …; assay: FACS, HEK293T with human RANK-L, 16 pM Nanobody
Method: as §2

[19] = biological target: T2, human RANK-L, full length, …; assay: FACS, HEK293T with human RANK-L, 3.2 pM Nanobody
Method: as §2

human RANK-L [20] = biological target: T1, human RANK-L; assay: FMAT, ALEXA647-hRANK-L / RANK on HEK293T cells; remark: listed apart in the source
Method: HEK293T cells were transiently transfected with the plasmid expressing full length RANK using Fugene6 as described in example 3. After 24 hours aliquots of 60 μl (7.5×10³ cells) were plated into FMAT system 384-well plates (PE Biosystems, CA, US) and allowed to adhere for 24 h. After overnight adherence, culture supernatant was removed by gently tapping the plate. […] The plates were scanned after 10 hours of incubation. Cell surface fluorescence was measured by 8200 Cellular Detection System (Applied Biosystems, Foster City, Calif., US) which is a fluorescence macro-confocal, biological binding event analyzer that enables mix-and-read assays with live cells.

TRAIL [21] = biological target: T6, TRAIL; assay: competition ELISA on human RANK-L-coated plates, 100 pM Nanobody preincubated with the ligand
mouse RANK-L [22] = biological target: T5, mouse RANK-L; assay: as above
TNFα [23] = biological target: T7, TNFα; assay: as above

T6 sequence (P50591 114-281 limits assumed): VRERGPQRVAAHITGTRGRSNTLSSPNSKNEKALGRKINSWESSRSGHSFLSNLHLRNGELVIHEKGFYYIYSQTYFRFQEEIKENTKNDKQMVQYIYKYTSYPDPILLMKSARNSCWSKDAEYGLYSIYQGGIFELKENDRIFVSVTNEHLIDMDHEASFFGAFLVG
T7 sequence (P01375 77-233 limits assumed): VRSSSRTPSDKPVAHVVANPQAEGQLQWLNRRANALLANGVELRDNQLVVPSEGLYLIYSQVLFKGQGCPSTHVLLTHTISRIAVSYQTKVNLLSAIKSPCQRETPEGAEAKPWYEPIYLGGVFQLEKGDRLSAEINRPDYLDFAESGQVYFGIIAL

Binder | IC50 (human RANK-L [1]) [nM] | Kd (human RANK-L [2]) [nM] | kon (human RANK-L [2]) [M⁻¹ s⁻¹] | IC50 (human RANK-L [3]) [nM] | IC50 (human RANK-L [4]) [nM] | koff (human RANK-L [5]) [s⁻¹] | binding result (TRAIL [21]) | binding result (mouse RANK-L [22]) | binding result (TNFα [23]) | also measured
RANKL18hum6 (VHH) VHH: EVQLVESGGGLVQPGGSLRLSCAASGRTFSRSAMGWFRQAPGKGREFVGFITGSGGTTYYADSVKGRFTISRDNAQNPVYLQMNSLRPEDTAVYYCAVYRRTYISSTYSESSEYDYWGQGTLVTVSS | 0.138 | 0.16 | 500000 | 0.087 | 0.38 | 6.72e-05 |  |  |  | 
RANKL13hum5 (VHH) VHH: EVQLVESGGGLVQPGGSLRLSCAASGFTFSSYPMGWFRQAPGKGREFVSSITGSGGSTYYADSVKGRFTISRDNAKNTLYLQMNSLRPEDTAVYYCAAYIRPDTYLSRDYRKYDYWGQGTLVTVSS | 0.091 | 0.26 | 800000 | 0.188 | 0.137 | 0.00021 |  |  |  | 
RANKL15 (VHH, not shown: small tags and cut ends) VHH: EVQLVESGGGLVQAGGSLRLSCAAAGGTFRNYVMGWFRQAPGKEREFVTAISTGGSWTGYVDSVKDRFTISRDNTKNTVYLQMASLKPEDTAVYYCAATTPATTYLPRSERQYDYWGQGTQVTVSS |  |  |  |  |  |  |  |  |  | PE mean fluorescence [6]: 2640; IC50 (human RANK-L [7]): 0.283 nM; EC50 (human RANK-L [8]): 0.266 nM; PE mean fluorescence [9]: 715; PE mean fluorescence [10]: 3410; PE mean fluorescence [11]: 7720; RANK-L induced NF-kappaB activation (luciferase reporter, HEK293T cells), IC50 (human RANK-L [12]): 10 nM; PE mean fluorescence [13]: 11000; binding result (TRAIL [14]): no binding (tested: approximately 100 nM); binding result (TNFα [15]): no binding (tested: approximately 100 nM); binding result (CD40 ligand): no binding (tested: approximately 100 nM); IC50 (human RANK-L [16]): 0.572 nM; binding result (mouse RANK-L [17]): no binding (tested: 500 nM to 160 pM); PE mean fluorescence [18]: 250; PE mean fluorescence [19]: 124; IC50 (human RANK-L [20]): 0.534 nM
RANKL001p (VHH, PEG (3-Maleimidoproprionamide, 1,3-bis(Methoxy poly (ethylene glycol) modified 2-glycerol), Average MW 40,000) coupled after DTT reduction; the entry ends in GGGC, Bivalent pegylated humanized Nanobody; also called RANKL13hum5-9GS-RANKL13hum5-PEG) EVQLVESGGGLVQPGGSLRLSCAASGFTFSSYPMGWFRQAPGKGREFVSSITGSGGSTYYADSVKGRFTISRDNAKNTLYLQMNSLRPEDTAVYYCAAYIRPDTYLSRDYRKYDYWGQGTLVTVSSGGGGSGGGSEVQLVESGGGLVQPGGSLRLSCAASGFTFSSYPMGWFRQAPGKGREFVSSITGSGGSTYYADSVKGRFTISRDNAKNTLYLQMNSLRPEDTAVYYCAAYIRPDTYLSRDYRKYDYWGQGTLVTVSSGGGC |  |  |  | 0.049 | 0.041 |  | no binding (tested: 10 nM) | no binding (tested: 10 nM) | no binding (tested: 10 nM) | 
RANKL003p (VHH, PEG (3-Maleimidoproprionamide, 1,3-bis(Methoxy poly (ethylene glycol) modified 2-glycerol), Average MW 40,000) coupled after DTT reduction; the entry ends in GGGC, Bivalent pegylated humanized Nanobody; also called RANKL3p; RANKL18hum6-30GS-RANKL18hum6-PEG) EVQLVESGGGLVQPGGSLRLSCAASGRTFSRSAMGWFRQAPGKGREFVGFITGSGGTTYYADSVKGRFTISRDNAQNPVYLQMNSLRPEDTAVYYCAVYRRTYISSTYSESSEYDYWGQGTLVTVSSGGGGSGGGGSGGGGSGGGGSGGGGSGGGGSEVQLVESGGGLVQPGGSLRLSCAASGRTFSRSAMGWFRQAPGKGREFVGFITGSGGTTYYADSVKGRFTISRDNAQNPVYLQMNSLRPEDTAVYYCAVYRRTYISSTYSESSEYDYWGQGTLVTVSSGGGC |  |  |  | 0.025 | 0.038 |  | no binding (tested: 10 nM) | no binding (tested: 10 nM) | no binding (tested: 10 nM) | 
